Consider 34 sequences from the supplement of paper PMC7877785.

A short description of this data set: self-splicing fitness, log relative to wild type (ln ratio); higher = more splicing; Tetrahymena group I intron in knt gene, E. coli kanamycin selection, DiMSum; sequences stand for … in CUCUCU…GGAGGGAAAAGUUAUCAGGCAUGCACCUGGUAGCUAGUCUUUAAACCAAUAGAUUGCAUCGGUUUAAAAGGCAAGACCGUCAAAUUGCGGGAAAGGGGUCAACAGCCGUUCAGUACCAAGUCUCAGGGGAAACUUUGAGAUGGCCUUGCAAAGGGUAUGGUAAUAAGCUGACGGACAUGGUCCUAACCACGCAGCCAAGUCCUAAGUCAACAGAUCUUCUGUUGAUAUGGAUGCAGUUCACAGACUAAAUGUCGGUCGGGGAAGAUGUAUUCUUCUCAUAAGAUAUAGUCGGACCUCUCCUUAAUGGGAGCUAGCGGAUGAAGUGAUGCAACACUGGAGCCGCUGGGAACUAAUUUGUAUGCGAAAGUAUAUUGAUUAGUUUUGGAGUACUCGUGGUCG
The procedure, abridged:
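Six replicate transformations of E. coli BL21(DE3) with a pET-22b(+) library were grown overnight at 37°C or 30°C. The library randomised all eight P1ex-region intron nucleotides, the intron lying in the knt kanamycin-resistance gene, and plates were LB agar with or without 25 μg/mL kanamycin plus 100 μg/mL carbenicillin, 50 μM IPTG and 0.2% rhamnose. Pooled colonies were amplicon-sequenced on an Illumina HiSeq 2500, and fitness is the DiMSum error-weighted combination of wild-type-normalised replicate fold changes, kanamycin versus none.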

± gives the uncertainty stated by the source.

Turning to AUACAGCAAUAUUACGAGUC, the “self-splicing fitness (ln)” value (30 °C) was -3.23 ± 0.19 and the “self-splicing fitness (ln)” value (37 °C) was -2.57 ± 0.19.

UUGUAGCAAUAUUACGUCAU: the “self-splicing fitness (ln)” value is -2.87 ± 0.18 (30 °C) and -1.63 ± 0.13 (37 °C).

Regarding GCAGAGCAAUAUUACGCAAC, the “self-splicing fitness (ln)” value runs as follows: (30 °C) -1.53 ± 0.35; (37 °C) -2.13 ± 0.43. Consider ACAGAGCAAUAUUACGGUAG, for which the “self-splicing fitness (ln)” value (30 °C) is -2.61 ± 0.13 and the “self-splicing fitness (ln)” value (37 °C) is -2.49 ± 0.18.

As to AAGGAGCAAUAUUACGCGUC, for the setting “30 °C”, the “self-splicing fitness (ln)” value was -2.96 ± 0.37. On to GAAGAGCAAUAUUACGAUUC, for which the “self-splicing fitness (ln)” value reads like this: (30 °C) -3.57 ± 0.26; (37 °C) -2.45 ± 0.28.

Consider ACUCAGCAAUAUUACGAUCA, for which the “self-splicing fitness (ln)” value is -0.712 ± 0.13 (30 °C) and -0.359 ± 0.12 (37 °C). In the same order, the values of CGUUAGCAAUAUUACGAACU are -0.929 ± 0.075 and 0.785 ± 0.11.

Consider AUGCAGCAAUAUUACGAGAU, for which the “self-splicing fitness (ln)” value by setting is: (30 °C) -3 ± 0.15; (37 °C) -1.54 ± 0.12.

Regarding CGACAGCAAUAUUACGCGUU, the “self-splicing fitness (ln)” value reads like this: (30 °C) -4.77 ± 0.26; (37 °C) -3.29 ± 0.18. Take GUCGAGCAAUAUUACGAUGA: the “self-splicing fitness (ln)” value (30 °C) was -1.6 ± 0.15 and the “self-splicing fitness (ln)” value (37 °C) was -0.827 ± 0.14.

On to GGGCAGCAAUAUUACGAUGU, for which the “self-splicing fitness (ln)” value is -3.92 ± 0.3 (30 °C) and -0.5 ± 0.18 (37 °C).

CACCAGCAAUAUUACGAUGU: the “self-splicing fitness (ln)” value is, setting by setting: (30 °C) -3.07 ± 0.12; (37 °C) -0.91 ± 0.085.

Regarding CCUGAGCAAUAUUACGUCGA, the “self-splicing fitness (ln)” value was -3.41 ± 0.42 (30 °C) and -3.34 ± 0.33 (37 °C). For CGACAGCAAUAUUACGCGCC, the “self-splicing fitness (ln)” value was -2.02 ± 0.13 (30 °C) and -0.187 ± 0.17 (37 °C). In the same order, the values of GCCCAGCAAUAUUACGCGGA are -0.775 ± 0.098 and -0.201 ± 0.12.

As for UACAAGCAAUAUUACGGGCA, the “self-splicing fitness (ln)” value runs as follows: (30 °C) -0.0705 ± 0.063; (37 °C) 0.152 ± 0.072.

Turning to GAGUAGCAAUAUUACGCUAU, where the note is “30 °C”, the “self-splicing fitness (ln)” value was -3.73 ± 0.27. Take GCUGAGCAAUAUUACGUCGA: the “self-splicing fitness (ln)” value (30 °C) was -1.34 ± 0.24 and the “self-splicing fitness (ln)” value (37 °C) is -1.72 ± 0.24. On to CAGUAGCAAUAUUACGGUUA, for which the “self-splicing fitness (ln)” value is -2.63 ± 0.14 (30 °C) and -2.69 ± 0.15 (37 °C). For AGUAAGCAAUAUUACGACAC, the “self-splicing fitness (ln)” value was -1.58 ± 0.19 (30 °C) and -0.792 ± 0.17 (37 °C). As for CCUUAGCAAUAUUACGCCAG, the “self-splicing fitness (ln)” value (37 °C) was -2.05 ± 0.45.

GGCCAGCAAUAUUACGGGCG: the “self-splicing fitness (ln)” value runs as follows: (30 °C) -2.13 ± 0.2; (37 °C) -2.02 ± 0.26. Turning to UAGCAGCAAUAUUACGCUUU, the “self-splicing fitness (ln)” value runs as follows: (30 °C) -1.18 ± 0.12; (37 °C) -0.753 ± 0.16. The like results for GUUUAGCAAUAUUACGGUGA were, in that order, -1.84 ± 0.2 and -0.461 ± 0.18. With UACAAGCAAUAUUACGCGCC, the “self-splicing fitness (ln)” value was -1.66 ± 0.13 (30 °C) and -0.798 ± 0.13 (37 °C). On to CAGAAGCAAUAUUACGGCUU, for which the “self-splicing fitness (ln)” value (30 °C) is -3.46 ± 0.21 and the “self-splicing fitness (ln)” value (37 °C) was -3.66 ± 0.29.

As for CACCAGCAAUAUUACGGAAA, the “self-splicing fitness (ln)” value is, setting by setting: (30 °C) -1.63 ± 0.1; (37 °C) -2.03 ± 0.14. UGAAAGCAAUAUUACGGUAA: the “self-splicing fitness (ln)” value was -1.02 ± 0.085 (30 °C) and -0.765 ± 0.078 (37 °C).

As for GUCUAGCAAUAUUACGUACG, the “self-splicing fitness (ln)” value was -1.29 ± 0.12 (30 °C) and -0.709 ± 0.12 (37 °C). On to AUUAAGCAAUAUUACGUAUU, for which the “self-splicing fitness (ln)” value (30 °C) is -2.15 ± 0.13 and the “self-splicing fitness (ln)” value (37 °C) was -1.85 ± 0.16. In the same order, the values of CAUUAGCAAUAUUACGAAAG are -0.84 ± 0.12 and -0.567 ± 0.13. For CAUCAGCAAUAUUACGGACC, the “self-splicing fitness (ln)” value (30 °C) was -3.04 ± 0.24 and the “self-splicing fitness (ln)” value (37 °C) is -0.899 ± 0.22. The like results for AUUAAGCAAUAUUACGUGUA were, in that order, -2.57 ± 0.14 and -1.66 ± 0.13.
